Results on two molecules are retold here after publication PMC5829564 (Nucleic Acids Research, 2018).

Series [1] concerns the molecule itself. Nature of the series: SEC-RALS.
For series [2], the target named is T1, Grhl1 DBD (Homo sapiens, UniProt Q9NZI5 248-485).
T1 sequence: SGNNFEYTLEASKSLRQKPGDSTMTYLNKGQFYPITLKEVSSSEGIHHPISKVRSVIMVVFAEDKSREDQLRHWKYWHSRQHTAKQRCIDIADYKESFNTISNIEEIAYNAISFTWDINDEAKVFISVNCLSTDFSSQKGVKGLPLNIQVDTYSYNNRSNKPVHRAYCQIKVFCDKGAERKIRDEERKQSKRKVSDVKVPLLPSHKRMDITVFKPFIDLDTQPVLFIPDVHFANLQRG
Nature of the series: ITC.

B1: ΔN_Grhl1 (N-terminal truncation construct of human Grhl1, aa 248–618; DBD plus dimerization domain) (domain or fragment, UniProt Q9NZI5 248-618, looked up)
chain: SGNNFEYTLEASKSLRQKPGDSTMTYLNKGQFYPITLKEVSSSEGIHHPISKVRSVIMVVFAEDKSREDQLRHWKYWHSRQHTAKQRCIDIADYKESFNTISNIEEIAYNAISFTWDINDEAKVFISVNCLSTDFSSQKGVKGLPLNIQVDTYSYNNRSNKPVHRAYCQIKVFCDKGAERKIRDEERKQSKRKVSDVKVPLLPSHKRMDITVFKPFIDLDTQPVLFIPDVHFANLQRGTHVLPIASEELEGEGSVLKRGPYGTEDDFAVPPSTKLARIEEPKRVLLYVRKESEEVFDALMLKTPSLKGLMEAISDKYDVPHDKIGKIFKKCKKGILVNMDDNIVKHYSNEDTFQLQIEEAGGSYKLTLTEI
In the case of B1, in series [1], the “stoichiometry N” value came to 2.

B2: Mut_12mer (dsDNA)
DNA 1: AAAATCGATTTT
DNA 2: AAAATCGATTTT
Turning to B2, the binding result in series [2] is recorded as “no binding”.

In general, stoichiometry N refers to a count of units in the complex or per binding partner.
